Results taken from article PMC5339286, “A Novel Soybean ERF Transcription Factor, GmERF113, Increases Resistance to Phytophthora sojae Infection in Soybean”.
Numbering of substitutions follows the chain as printed.

B1: GCC probe (GCC-box) (dsDNA)
DNA 1: ATCCATAAGAGCCGCCACTAAAATAAGACCGATCAA
DNA 2: TTGATCGGTCTTATTTTAGTGGCGGCTCTTATGGAT
B2: mGCC probe (mutated GCC-box) (dsDNA)
DNA 1: B1 DNA 1 with G11T, G14T
DNA 2: B1 DNA 2 with C23A, C26A

Target: GmERF113 (Glycine max (soybean) cv. Suinong 10, UniProt I1ML94 1-260)
Experiment: EMSA; EMSA as described by Liu et al. (2006); buffer, salt, pH and temperature not stated
Conditions: protein: recombinant

Sequence of GmERF113 (I1ML94 entry or part of it): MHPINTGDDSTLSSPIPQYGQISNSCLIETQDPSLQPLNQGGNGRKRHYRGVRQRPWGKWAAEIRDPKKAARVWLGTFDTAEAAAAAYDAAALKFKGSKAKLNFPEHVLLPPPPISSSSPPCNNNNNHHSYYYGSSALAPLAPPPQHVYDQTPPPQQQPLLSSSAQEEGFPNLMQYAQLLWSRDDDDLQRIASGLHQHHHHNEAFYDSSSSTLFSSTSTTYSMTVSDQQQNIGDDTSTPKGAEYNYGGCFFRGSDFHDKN

Binder	binding result
B1	binds
B2	no binding
